Literature values, collected in publication PMC6128780.
pKd: −log10 of the molar value.

Target: Fibronectin (Homo sapiens) (UniProt P02751)
UniProt P02751, sequence (P02751 32-2477): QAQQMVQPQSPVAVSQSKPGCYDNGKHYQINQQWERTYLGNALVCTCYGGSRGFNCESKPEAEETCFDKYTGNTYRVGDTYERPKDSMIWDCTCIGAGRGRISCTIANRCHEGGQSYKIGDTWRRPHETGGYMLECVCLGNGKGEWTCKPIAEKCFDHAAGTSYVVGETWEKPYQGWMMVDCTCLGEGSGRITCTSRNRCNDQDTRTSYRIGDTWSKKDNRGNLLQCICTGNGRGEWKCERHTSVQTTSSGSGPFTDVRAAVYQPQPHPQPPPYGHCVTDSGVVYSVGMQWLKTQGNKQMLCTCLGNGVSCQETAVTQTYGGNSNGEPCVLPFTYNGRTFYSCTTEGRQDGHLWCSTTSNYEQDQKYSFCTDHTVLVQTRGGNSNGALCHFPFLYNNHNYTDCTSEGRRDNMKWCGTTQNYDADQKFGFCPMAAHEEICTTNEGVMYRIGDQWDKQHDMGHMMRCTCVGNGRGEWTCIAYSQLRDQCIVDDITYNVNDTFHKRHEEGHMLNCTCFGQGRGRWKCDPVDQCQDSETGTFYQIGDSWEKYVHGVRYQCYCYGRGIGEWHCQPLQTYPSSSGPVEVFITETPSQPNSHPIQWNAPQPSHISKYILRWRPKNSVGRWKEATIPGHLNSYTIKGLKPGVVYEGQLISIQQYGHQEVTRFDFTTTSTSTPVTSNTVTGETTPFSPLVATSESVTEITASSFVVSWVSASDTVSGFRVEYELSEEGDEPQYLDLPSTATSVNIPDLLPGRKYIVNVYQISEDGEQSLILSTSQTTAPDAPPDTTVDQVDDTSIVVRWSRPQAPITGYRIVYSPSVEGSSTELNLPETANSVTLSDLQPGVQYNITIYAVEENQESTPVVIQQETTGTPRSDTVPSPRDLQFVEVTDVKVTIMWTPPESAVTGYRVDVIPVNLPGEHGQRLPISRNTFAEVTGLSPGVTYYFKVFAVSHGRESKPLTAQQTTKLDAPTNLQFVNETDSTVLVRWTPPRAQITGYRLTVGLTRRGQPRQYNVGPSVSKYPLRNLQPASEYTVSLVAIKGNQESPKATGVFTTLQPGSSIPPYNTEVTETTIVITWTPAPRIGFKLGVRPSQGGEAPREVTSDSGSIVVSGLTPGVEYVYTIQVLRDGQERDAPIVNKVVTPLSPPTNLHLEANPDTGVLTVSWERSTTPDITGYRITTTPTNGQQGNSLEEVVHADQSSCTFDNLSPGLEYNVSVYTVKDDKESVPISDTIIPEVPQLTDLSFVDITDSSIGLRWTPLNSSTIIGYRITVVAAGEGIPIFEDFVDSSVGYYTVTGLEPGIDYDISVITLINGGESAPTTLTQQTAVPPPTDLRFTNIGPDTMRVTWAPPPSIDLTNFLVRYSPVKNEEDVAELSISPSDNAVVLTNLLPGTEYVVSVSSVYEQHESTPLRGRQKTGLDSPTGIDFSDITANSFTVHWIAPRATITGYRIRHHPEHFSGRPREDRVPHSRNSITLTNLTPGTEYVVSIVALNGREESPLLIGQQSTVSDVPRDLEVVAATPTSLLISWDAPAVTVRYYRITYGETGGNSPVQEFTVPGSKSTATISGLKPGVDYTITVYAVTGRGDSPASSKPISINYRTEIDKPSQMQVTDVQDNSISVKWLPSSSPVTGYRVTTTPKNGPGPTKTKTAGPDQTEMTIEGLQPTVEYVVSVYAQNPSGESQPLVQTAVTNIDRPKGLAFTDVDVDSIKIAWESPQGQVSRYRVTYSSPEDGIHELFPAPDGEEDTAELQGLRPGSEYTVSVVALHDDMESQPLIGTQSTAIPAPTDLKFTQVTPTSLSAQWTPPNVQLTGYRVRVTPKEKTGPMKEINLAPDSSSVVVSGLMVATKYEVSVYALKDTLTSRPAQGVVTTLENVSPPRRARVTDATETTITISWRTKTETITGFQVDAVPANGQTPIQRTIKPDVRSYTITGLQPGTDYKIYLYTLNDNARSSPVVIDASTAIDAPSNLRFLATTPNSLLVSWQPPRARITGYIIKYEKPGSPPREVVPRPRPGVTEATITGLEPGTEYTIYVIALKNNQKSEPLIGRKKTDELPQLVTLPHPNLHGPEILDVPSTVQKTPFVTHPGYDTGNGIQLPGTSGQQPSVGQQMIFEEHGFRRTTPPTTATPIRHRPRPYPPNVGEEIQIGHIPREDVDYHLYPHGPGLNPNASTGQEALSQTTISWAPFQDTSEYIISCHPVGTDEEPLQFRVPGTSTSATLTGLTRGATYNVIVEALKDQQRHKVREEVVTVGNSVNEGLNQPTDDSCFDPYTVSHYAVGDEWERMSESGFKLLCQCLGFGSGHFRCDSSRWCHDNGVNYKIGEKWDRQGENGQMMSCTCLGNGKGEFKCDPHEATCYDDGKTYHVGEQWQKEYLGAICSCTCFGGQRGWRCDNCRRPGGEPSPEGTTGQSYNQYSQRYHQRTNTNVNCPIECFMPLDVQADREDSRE

Question: With “Carcinoembryonic antigen (CEA) IgV-like N domain (from UniProt P06731)” as the substance, how does the pKd read?
Answer: The pKd was 7.80.
